The supplement of paper PMC10567573

B1: CCND1 (parent)
chain: PEAEENKQIIRKHAQTFVALCATD

Variants of: B1
Assay: protein stability index of a GFP-peptide fusion (GPS, HEK-293T) (PSI 1-6); higher = more stable
Settings: c terminus: a fixed tail appended
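Further: lentivirally expressed fusions sorted by FACS into six bins by GFP to DsRed ratio, PSI derived from sequencing read proportions per bin multiplied by bin number.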

Protein stability index: each site, then its substitutions
A19: E 2.49 | N 2.92 | C 3.3 | K 3.54 | D 2.6 | G 2.91 | Y 3.64 | V 4.04 | S 2.89
Q15: W 2.16 | P 3.48 | I 2.33 | N 3.41 | A 3.45 | E 3.63 | K 2.04 | F 2.07 | V 2.84 | G 3.11 | Y 2.01
A14: R 1.85 | P 2.64 | I 2.29 | D 3.71 | F 2.79 | E 3.45 | L 2.18 | K 2.38 | H 2.62 | N 3.77
I9: Y 2.71 | F 2.86 | H 3.58 | V 3.04 | C 2.48 | A 3.74 | S 2.46
E2: K 2.73 | Q 2.53 | S 2.4 | V 2.8 | D 2.75 | W 1.81 | M 2.98 | T 2.29 | R 1.87 | G 2.92 | N 2.32
D24: T 3.35 | I 2.15 | Q 3.8 | F 2.23 | M 2.93 | W 2.39 | G 2.85
T16: M 3.86 | I 3.35 | R 4.25 | S 3.2 | Y 3.58 | Q 4.13 | H 4.35 | A 4.71 | L 3.51
E5: Y 2.21 | R 1.93 | S 1.79 | P 2.33
A3: N 3.15 | Q 2.86 | R 3.26 | V 3 | K 2.8 | I 2.93
H13: Y 2.59 | N 2.53 | E 3.7 | V 3.02 | A 3.11 | D 4.02 | I 1.87 | L 2.81
I10: E 3.64 | S 2.53 | K 2.92 | C 3.13 | M 3.5 | H 3.5 | Y 2.29 | F 2.48 | N 3.04
V18: A 3.77 | E 5.09 | I 4.42 | D 5.34 | T 3.96 | H 4.7 | W 3.76 | R 3.87 | S 4.49 | P 5.04 | M 4.35 | K 5.09
R11: M 2.71 | D 4.11 | K 2.9 | W 2.6 | E 3.76 | S 2.62 | Q 3.61 | H 3.33 | I 2.84 | V 3.14 | T 3.47
N6: Y 3.05 | K 2.38 | I 2.26 | G 2.35 | F 2.17 | R 2.22 | C 1.93 | A 2.14 | E 2.92
F17: K 5.34 | Y 3.27 | P 5.15 | T 5.23 | W 2.11 | H 4.86
P1: Q 2.78 | T 2.18 | S 2.34 | V 2.66 | F 2.44 | L 2.76 | C 1.97 | D 3.29 | G 2.78 | R 2.59
A22: I 2.95 | W 2.09 | V 2.52 | P 4.49 | C 2.15 | D 3.87 | Q 2.91 | Y 3.02 | G 3.37 | E 2.96
Q8: R 3.07 | Y 2.55 | D 3.54 | E 3.48 | N 3.13 | K 2.33
L20: F 4.21 | Y 2.66 | P 4.79 | D 4.62
K7: S 2.53 | M 3.17 | W 2.61 | A 3.37 | F 2.71
K12: P 4.03 | N 3.25 | Y 3.49
